Measured values from patent publication US20140303084.
Numbering of substitutions follows the chain as printed.

Experiments:
[1] = test system: T1, PRSRTVGPGSRSASGKLTCLASYCWLFWTGIA
T1 sequence: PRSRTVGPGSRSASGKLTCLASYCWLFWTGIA

[2] = test system: T2, RRAPGKLTCLASYCK(PEG2-Biotin)LFWTGIA
T2 sequence: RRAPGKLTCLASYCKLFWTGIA

[3] = test system: T3, RRAPGKLTCLASYCWLF WAVIA PPKVKGTRQS
T3 sequence: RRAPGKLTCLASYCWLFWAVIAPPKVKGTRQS

[4] = test system: T4, RRCPGKLQALASYCWLFWTGIA
T4 sequence: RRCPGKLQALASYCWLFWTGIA

[5] = test system: T5, KGAYQKLTCLASYCLLFLLTAQ
T5 sequence: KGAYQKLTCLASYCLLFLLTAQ

[6] = test system: T6, RRAPGKLT-Lys-LASY-Glu-WLFWTGIA-CONH2
T6 sequence: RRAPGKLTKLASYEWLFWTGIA

[7] = test system: T7, Dpr-LTCLASYCWLF
T7 sequence: XLTCLASYCWLF

[8] = test system: T8, KLTCLAAYCWLF
T8 sequence: KLTCLAAYCWLF

[9] = test system: T9, KRYVYRQMCLVSACWLLQLGYA
T9 sequence: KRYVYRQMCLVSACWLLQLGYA

[10] = test system: T10, ═N-O-(CH2)3-O-N═(COCH2CH2CO-KLTCLASYCWLF)2
T10 sequence: KLTCLASYCWLF

[11] = test system: T11, PQTRDPSSRD RRAPG KLTCLASYCWLFWTGIA
T11 sequence: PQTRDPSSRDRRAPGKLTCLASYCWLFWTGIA

[12] = test system: T12, RRAPGKLTCLASYCWLFWTGIK(PEG2-Biotin)
T12 sequence: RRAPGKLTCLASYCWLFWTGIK

[13] = test system: T13, Biotin-PEG2-LYTAWIKCQFARLPGCALSGRW
T13 sequence: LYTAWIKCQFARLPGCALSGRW

[14] = test system: T14, KITCLASYCWLF
T14 sequence: KLTCLASYCWLF

[15] = test system: T15, KLTCLASYCWLF-(PEG)4-CONH2
T15 sequence: KLTCLASYCWLF

[16] = test system: T16, k-MeLeu-TCLASYCWLA
T16 sequence: KLTCLASYCWLA

[17] = test system: T17, SKAGRPISPDrRAAGKLTCLASYCWLFWTGIA
T17 sequence: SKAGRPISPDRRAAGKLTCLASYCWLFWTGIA

[18] = test system: T18, C(PEG5K)GGGLVPRGGG-RRAPGKLT-Asp-LASY-Lys-WLFWTGIA
T18 sequence: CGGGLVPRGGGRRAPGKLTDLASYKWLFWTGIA

[19] = test system: T19, SRSRTVSPGSRSASGKSTCLASYCWLFWTGIA
T19 sequence: T1 sequence with P1S, G7S, L17S

[20] = test system: T20, SKQGAPISPDrRAAGKLTCLASYCWLFWTGIA
T20 sequence: T17 sequence with A3Q, R5A

[21] = test system: T21, RRAPGKLTCLASYCWLF WTGWS RDTASHASDS
T21 sequence: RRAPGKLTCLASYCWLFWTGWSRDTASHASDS

[22] = test system: T22, C(PEG5k)GGG-RRAPGKLT-Asp-LASY-Lys-WLFWTGIA
T22 sequence: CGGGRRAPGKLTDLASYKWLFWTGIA

[23] = test system: T23, KLTCAASYCWLF
T23 sequence: KLTCAASYCWLF

[24] = test system: T24, RRAPGKLT-Asp-LASY-Orn-WLFWTGIA-CONH2
T24 sequence: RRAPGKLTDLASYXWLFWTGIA

[25] = test system: T25, HMQWGKLPCLASYCWLFWYGIG
T25 sequence: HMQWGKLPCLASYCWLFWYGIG

[26] = test system: T26, k-MeLeu-TCLASYCQLF
T26 sequence: KLTCLASYCQLF

[27] = test system: T27, SRIRTVSPGSRSASGKSTCLASYCWLFWTGIA
T27 sequence: T1 sequence with P1S, S3I, G7S, L17S

[28] = test system: T28, LQLSYGEQRQ SRAPG KLTCLASYCWLFWTGIA
T28 sequence: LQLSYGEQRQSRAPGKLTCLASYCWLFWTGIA

[29] = test system: T29, RRAPG-k-NMeLeu-TCLASYCWLFWTGIA
T29 sequence: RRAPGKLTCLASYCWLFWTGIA

[30] = test system: T30, SKQGRPISPDrRAAGKLTCLASYCWLFWTGIA-PEG4-C(N-PEG5k maleimide)
T30 sequence: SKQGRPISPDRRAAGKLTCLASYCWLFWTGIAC

[31] = test system: T31, RRAPGKLT-Dab-LASY-Asp-WLFWTGIA-COOH
T31 sequence: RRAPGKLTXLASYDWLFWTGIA

[32] = test system: T32, KLTCLA-HSe-YCWLF
T32 sequence: KLTCLAXYCWLF

[33] = test system: T33, HYARVQLRCLDGYCWLLTKSRM
T33 sequence: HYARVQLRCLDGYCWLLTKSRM

[34] = test system: T34, RRFVGGSLSQ RRAPG KLTCLASYCWLFWTGIA
T34 sequence: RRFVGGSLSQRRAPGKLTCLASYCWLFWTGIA

[35] = test system: T35, PRTTANRRSS RRAPA KLTCLASYCWLFWTGIA
T35 sequence: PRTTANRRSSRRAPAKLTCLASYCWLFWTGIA

[36] = test system: T36, LYPRLYTPGS RRAYG KLTCLASYCWLFWTGIA
T36 sequence: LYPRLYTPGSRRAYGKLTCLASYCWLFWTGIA

[37] = test system: T37, RRAPGKLT-Orn-LASY-Asp-WLFWTGIA-COOH
T37 sequence: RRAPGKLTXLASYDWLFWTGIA

[38] = test system: T38, Lys(palmitoyl)-PEG16-Lys(PEG2-Biotin)-PEG16-rRAPGKLTCLASYCWLFWTGIA
T38 sequence: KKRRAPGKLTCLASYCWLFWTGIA

[39] = test system: T39, RRRKLTCLASYCWLFRRR
T39 sequence: RRRKLTCLASYCWLFRRR

[40] = test system: T40, KLLKLLLKLLLKLLK-k-MeLeu-TCLASYCWLF
T40 sequence: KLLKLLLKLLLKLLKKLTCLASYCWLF

[41] = test system: T41, RRAPGKLQCLASYCWLFWTG-Tle-A
T41 sequence: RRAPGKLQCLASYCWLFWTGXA

[42] = test system: T42, RRAPGKLT-Lys-LASY-Glu-WLFWTGIA-COOH
T42 sequence: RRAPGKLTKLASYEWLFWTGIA

[43] = test system: T43, PRIrTVGPGSrSASGKSTCLASYCWLFWTGIA-PEG4-Pra
T43 sequence: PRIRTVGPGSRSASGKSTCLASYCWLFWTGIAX

[44] = test system: T44, RRAPGKLT-Dab-LASY-Asp-WLFWTGIA-CONH2
T44 sequence: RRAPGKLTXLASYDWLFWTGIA

[45] = test system: T45, ALTCLASYCWLF
T45 sequence: ALTCLASYCWLF

[46] = test system: T46, PRISTVGPGSRSASGKLTCLASYCWLFWTGIA
T46 sequence: T1 sequence with S3I, R4S

human Factor IXa
(++): Vmax, FXa generation assay; (++) means 1-2 [2] | Vmax, FXa generation assay; (++) means 1-2 [5] | Vmax, FXa generation assay; (++) means 1-2 [6] | Vmax, FXa generation assay; (++) means 1-2 [8] | Vmax, FXa generation assay; (++) means 1-2 [9] | Vmax, FXa generation assay; (++) means 1-2 [12] | Vmax, FXa generation assay; (++) means 1-2 [15] | Vmax, FXa generation assay; (++) means 1-2 [18] | Vmax, FXa generation assay; (++) means 1-2 [22] | Vmax, FXa generation assay; (++) means 1-2 [23] | Vmax, FXa generation assay; (++) means 1-2 [28] | Vmax, FXa generation assay; (++) means 1-2 [31] | Vmax, FXa generation assay; (++) means 1-2 [32] | Vmax, FXa generation assay; (++) means 1-2 [39] | Vmax, FXa generation assay; (++) means 1-2 [42] | Vmax, FXa generation assay; (++) means 1-2 [45]
> 0.5: Vmax, FXa generation assay [30]
> 3: Vmax, FXa generation assay [1] | Vmax, FXa generation assay [10] | Vmax, FXa generation assay [11] | Vmax, FXa generation assay [19] | Vmax, FXa generation assay [20] | Vmax, FXa generation assay [26] | Vmax, FXa generation assay [27] | Vmax, FXa generation assay [29] | Vmax, FXa generation assay [34] | Vmax, FXa generation assay [35] | Vmax, FXa generation assay [38] | Vmax, FXa generation assay [43] | Vmax, FXa generation assay [46]
> 2: Vmax, FXa generation assay [3] | Vmax, FXa generation assay [4] | Vmax, FXa generation assay [7] | Vmax, FXa generation assay [14] | Vmax, FXa generation assay [16] | Vmax, FXa generation assay [17] | Vmax, FXa generation assay [21] | Vmax, FXa generation assay [24] | Vmax, FXa generation assay [25] | Vmax, FXa generation assay [36] | Vmax, FXa generation assay [37] | Vmax, FXa generation assay [40] | Vmax, FXa generation assay [41] | Vmax, FXa generation assay [44]
> 2.5: Vmax, FXa generation assay [33]
> 1.5: Vmax, FXa generation assay [13]
